Biological target: T1, biotin-tagged HLA-A*03:01 monomers (immunAware) (human, biotin tag)
T1 construct: Bought recombinant monomer folded with the test peptide; also called HLA-A3; A3
Assay: flow cytometry on streptavidin beads: folding of biotinylated HLA-A*03:01 monomer around the peptide, detected with anti-b2m; 1.2 nM complex

- binding result: binds
Binder: RLKPSLVGK (From the SCG5-009 mRNA splice variant) [SCG5-009 193-201 peptide]

— patent publication US20250084143A1 (INSERM INSTITUT NATIONAL DE LA SANT ET DE LA RECHERCHE M …, published 2025)
